# Measurements taken from US20220072098A1 (priority 2012, published 2022).
# B1: free labeled protein: free trypsinogen labeled with AlexaFluor-488 (protein, UniProt P00760 18-246, looked up)
# pro-form: VDDDDKIVGGYTCGANTVPYQVSLNSGYHFCGGSLINSQWVVSAAHCYKSGIQVRLGEDNINVVEGNEQFISASKSIVHPSYNSNTLNNDIMLIKLKSAASLNSRVASISLPTSCASAGTQCLISGWGNTKSSGTSYPDVLKCLKAPILSDSSCKSAYPGQITSNMFCAGYLEGGKDSCQGDSGGPVVCSGKLQGIVSWGSGCAQKNKPGVYTKVCNYVSWIKQTIASN
# modifications: pro-form AlexaFluor-488 label
# Experiment: Tissue distribution of trypsinogen-AlexaFluor-488 after i.v. injection
# Format: in vivo, mice
# Details: 200 μg i.v., 30 min
# Method: Trypsinogen—AlexaFluor®-488 was injected i.v. in its free form or encapsulated in the bolavesicles. At 30 min after the injection, mice were anesthetized by Xylazine-Ketamine mixture and blood was withdrawn through cardiac puncture, the mouse was perfused with 10 ml PBS and tissues were dissected out. The dissected tissues were attached to labeled paper stripes, frozen in isopentane cooled over liquid nitrogen, and stored at −80° C. The selected tissues were cryosectioned and the fluorescence of the sections was analyzed using confocal fluorescent microscopy. All images were acquired using the same imaging settings and were not corrected or modified. Fluorescence of slices from different organs was quantified by imaging software after subtracting background fluorescence. In effect, for quantifying the fluorescence in the tissue, the average fluorescence obtained from the control mice, which were injected with PBS instead of the fluorescent material was subtracted from the fluorescence values obtained from the same tissue taken from animals that received Trypsinogen-AlexaFluor®-488. At least 4 slices from each organ of each mouse were used for the quantitative analysis and each group contained 4-5 mice.
# Prior to delivering GDNF to the brain, pilot experiment, in vivo, studies were carried out with the model protein—trypsinogen, which was labeled for this purpose with AlexaFluor®-488. […]
molecule,measurement,value
B1,labeled trypsinogen fluorescence in kidney,high fluorescence
